This note sets out measurements from paper PMC10606890, “Studying the Association of TKS4 and CD2AP Scaffold Proteins and Their Implications in the Partial Epithelial–Mesenchymal Transition (EMT) Process” (International Journal of Molecular Sciences, 2023).

This assay has as its target T1, Myc-DDK-tagged human CD2-associated protein (human, UniProt Q9Y5K6 1-639).
T1 construct: human CD2-associated protein (CD2AP), full-length protein; also called Myc-tagged CD2AP; Myc-CD2AP recombinant protein; source: bought: Origene Technologies (RC210191), recombinant protein
Briefly: peptide or protein array; PepStar microarray of 225 TKS4 15-mers (11 overlapping residues) on a glass slide, three subarrays; recombinant Myc-CD2AP incubated 1 h at 30 °C in SmartBlock solution, TBS washes, detected with Alexa Fluor 488 anti-Myc-tag antibody; threshold 10,000 U. To be noted: both partners purified.

T1 sequence (Q9Y5K6 whole entry): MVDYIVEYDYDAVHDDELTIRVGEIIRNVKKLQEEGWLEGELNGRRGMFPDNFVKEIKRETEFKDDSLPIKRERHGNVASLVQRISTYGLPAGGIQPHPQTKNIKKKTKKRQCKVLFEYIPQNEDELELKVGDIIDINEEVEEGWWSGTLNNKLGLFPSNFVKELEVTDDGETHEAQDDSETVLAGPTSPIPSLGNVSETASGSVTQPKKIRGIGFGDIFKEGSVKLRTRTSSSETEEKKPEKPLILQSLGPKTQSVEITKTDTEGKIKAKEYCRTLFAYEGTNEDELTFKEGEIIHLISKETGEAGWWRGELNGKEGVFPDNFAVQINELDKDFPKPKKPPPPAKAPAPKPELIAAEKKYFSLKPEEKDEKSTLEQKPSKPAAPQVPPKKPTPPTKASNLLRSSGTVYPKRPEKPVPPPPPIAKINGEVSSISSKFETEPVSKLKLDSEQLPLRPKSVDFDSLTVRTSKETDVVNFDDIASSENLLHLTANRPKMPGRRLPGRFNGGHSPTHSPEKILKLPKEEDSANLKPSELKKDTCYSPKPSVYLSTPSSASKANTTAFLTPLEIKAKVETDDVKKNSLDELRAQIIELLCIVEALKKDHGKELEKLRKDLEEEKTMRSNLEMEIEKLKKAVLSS

B1: TKS4 peptide 189 (15-mer of the PepStar peptide microarray) (peptide, UniProt A1X283 753-767, looked up)
peptide: QRPVVPPRRPPPPKK
notes: contains the motif 755-PVVPPR-760; source: synthetic peptide printed on a glass slide; bought: JPT Peptide Technologies (PepStar microarray)
In the case of B1, the binding result is listed as “binds”.

B2: TKS4 peptide 188 (15-mer of the PepStar peptide microarray) (peptide, UniProt A1X283 749-763, looked up)
peptide: EAPQQRPVVPPRRPP
notes: as for B1
On to B2, for which the binding result is “binds”.
